Assay results taken from the Human Domainome abundance scans (Beltran et al. 2025).
± gives the uncertainty stated by the source.

B1: Pyruvate dehydrogenase protein X component, mitochondrial, residues 181 to 227; numbered along this chain, O00330 (parent)
chain: RFRLSPAARNILEKHSLDASQGTATGPRGIFTKEDALKLVQLKQTGK

Variants of: B1
Assay: abundance fitness (aPCA) (normalised: wild type 0, dead -1); higher = more abundant; growth selection in yeast, the domain comes from the species named
Conditions: Homo sapiens

Point of comparison: RFRLSPAARNILEKHSLDASQGTATGPRGIFTKEDALKLVHLKQTGK, abundance fitness -0.452 ± 0.18. Against it:
- RFRLSPAARNILEKHSLDASQGTATGPRGIFTKEDAFKLVQLKQTGK — within error, -0.402 ± 0.094
- RFRLSPAARNILEKHSLDASQGTATGPRGIFTKEDAEKLVQLKQTGK — higher, 0.278 ± 0.09
- RFRLSPAARNILEKHSLDASQGTATGPRGIFTKEDAGKLVQLKQTGK — within error, -0.233 ± 0.05
- RFRLSYAARNILEKHSLDASQGTATGPRGIFTKEDALKLVQLKQTGK — higher, -0.174 ± 0.067
- RFRLSPAARNILEKHSLDGSQGTATGPRGIFTKEDALKLVQLKQTGK — higher, -0.136 ± 0.054
- RFRLSPAARNILEKHSLDKSQGTATGPRGIFTKEDALKLVQLKQTGK — within error, -0.602 ± 0.058
- RFRLSPAARNILEKHSLDASQGTATGPRGIFTKEDALCLVQLKQTGK — within error, -0.453 ± 0.087
- RFRLSPAARNILEKHSLDASQGIATGPRGIFTKEDALKLVQLKQTGK — higher, -0.074 ± 0.089
- RFRLSPAARNILEKHSLDASCGTATGPRGIFTKEDALKLVQLKQTGK — higher, -0.167 ± 0.059
- RFRLSPAARNILEKHSLDASTGTATGPRGIFTKEDALKLVQLKQTGK — within error, -0.427 ± 0.074
- RFRLSPAARNILEKHSLDASQGTATGPRGIFTKEDALKLVLLKQTGK — within error, -0.353 ± 0.058
- RFRLSPAARNILEKHSLDASQGTATGPRGIFTKEDALKLVELKQTGK — higher, 0.193 ± 0.07
- RFRLSPAARNILEKHSWDASQGTATGPRGIFTKEDALKLVQLKQTGK — within error, -0.57 ± 0.055
- RFRLSPAARNILEKHSIDASQGTATGPRGIFTKEDALKLVQLKQTGK — within error, -0.22 ± 0.15
- RFRLSPAARNILEKHSRDASQGTATGPRGIFTKEDALKLVQLKQTGK — lower, -0.856 ± 0.082
- RFRLSPAARNILEKHSPDASQGTATGPRGIFTKEDALKLVQLKQTGK — higher, -0.07 ± 0.081
- RFRLSPAARNILEKHSLDASQGTGTGPRGIFTKEDALKLVQLKQTGK — within error, -0.331 ± 0.068
- RFRLSPAARNILEKHDLDASQGTATGPRGIFTKEDALKLVQLKQTGK — higher, 0.078 ± 0.065
- RFRLSPAARNILEKHILDASQGTATGPRGIFTKEDALKLVQLKQTGK — lower, -0.894 ± 0.091
- RFRLSPAARNILEKHSLDASQGTATGPRGIFTKEDRLKLVQLKQTGK — lower, -0.723 ± 0.089
- RFRLSPAARNILEKHSLDASQGTATGPRGIFTKEDILKLVQLKQTGK — lower, -0.947 ± 0.078
- RFRLSPAARNILEKHSLDASQGTATGPRGEFTKEDALKLVQLKQTGK — higher, 0.092 ± 0.083
- RFRLSPAARNILEKHSLDASQGTATGPRGNFTKEDALKLVQLKQTGK — within error, -0.268 ± 0.061
- RFRLSPAARNILEKHSLDASQGTATGPRGLFTKEDALKLVQLKQTGK — higher, 0.116 ± 0.04
- RFRLSPAARNILEKHSLDASQGTATGPRGIFTKMDALKLVQLKQTGK — within error, -0.536 ± 0.096
- RFRLSPAARNILEKHSLDASQGTATGPRGIFTKIDALKLVQLKQTGK — within error, -0.615 ± 0.29
- RFRLSPAARNILEKHSLDASQGTATGPRGIFTKWDALKLVQLKQTGK — within error, -0.334 ± 0.12
- RFRLSPAARNILERHSLDASQGTATGPRGIFTKEDALKLVQLKQTGK — within error, -0.293 ± 0.053
- RFRLSPAARNILEIHSLDASQGTATGPRGIFTKEDALKLVQLKQTGK — higher, -0.165 ± 0.09
- RFRLSPAARNILESHSLDASQGTATGPRGIFTKEDALKLVQLKQTGK — within error, -0.279 ± 0.054
- RFRLSPAARNILEGHSLDASQGTATGPRGIFTKEDALKLVQLKQTGK — higher, -0.142 ± 0.044
- RFRLSPAARNILEKHSLKASQGTATGPRGIFTKEDALKLVQLKQTGK — higher, 0.086 ± 0.088
- RFRLSPAARNILEKHSLWASQGTATGPRGIFTKEDALKLVQLKQTGK — lower, -1.06 ± 0.14
- RFRLKPAARNILEKHSLDASQGTATGPRGIFTKEDALKLVQLKQTGK — within error, -0.61 ± 0.065
- RFRLEPAARNILEKHSLDASQGTATGPRGIFTKEDALKLVQLKQTGK — higher, 0.081 ± 0.044
- RFRLRPAARNILEKHSLDASQGTATGPRGIFTKEDALKLVQLKQTGK — lower, -0.862 ± 0.057
- RFRLWPAARNILEKHSLDASQGTATGPRGIFTKEDALKLVQLKQTGK — lower, -1.01 ± 0.14
- RFRLTPAARNILEKHSLDASQGTATGPRGIFTKEDALKLVQLKQTGK — higher, -0.032 ± 0.064
- RFRLSPAARNILEKHSLDASQWTATGPRGIFTKEDALKLVQLKQTGK — lower, -0.712 ± 0.074
- RFRLSPAARNILEKHSLDASQQTATGPRGIFTKEDALKLVQLKQTGK — within error, -0.479 ± 0.048
- RFRLSPAARNILEKHSLDASQETATGPRGIFTKEDALKLVQLKQTGK — within error, -0.43 ± 0.078
- RFRLSPAARNILEKHSLDASQSTATGPRGIFTKEDALKLVQLKQTGK — within error, -0.619 ± 0.066
- RFRLSPAARNILEKHSLDASQGTATGPVGIFTKEDALKLVQLKQTGK — within error, -0.456 ± 0.068
- RFRLSPAARNILEKHSLDASQGTATGPAGIFTKEDALKLVQLKQTGK — higher, -0.119 ± 0.06
- RFRLSPAARNILEKHSLDASQGTATGPSGIFTKEDALKLVQLKQTGK — higher, -0.146 ± 0.072
- RFRLSPAARNILEKHSLDASQGTATGPYGIFTKEDALKLVQLKQTGK — higher, -0.03 ± 0.064
- RFRGSPAARNILEKHSLDASQGTATGPRGIFTKEDALKLVQLKQTGK — within error, -0.241 ± 0.044
- RFRLSPAARNILEKHSLDASQGTATGPRGIFTKELALKLVQLKQTGK — lower, -0.76 ± 0.12
- RFRLSPAARNILEKHSLDASQGTATGPRGIFTKECALKLVQLKQTGK — lower, -1.06 ± 0.19
- RDRLSPAARNILEKHSLDASQGTATGPRGIFTKEDALKLVQLKQTGK — within error, -0.267 ± 0.088
- RFRLSPAARNILEKQSLDASQGTATGPRGIFTKEDALKLVQLKQTGK — within error, -0.341 ± 0.05
- RFRLSPAARNILEKFSLDASQGTATGPRGIFTKEDALKLVQLKQTGK — within error, -0.294 ± 0.077
- RFRLSPAARNILEKHSLDASQGTATGPRGIFTKEDALKLVQLKQCGK — within error, -0.217 ± 0.085
- RFRLSPAARNILEKHSLDASQGTATGPRGIFTKEDALKLVQLKQDGK — higher, 0.07 ± 0.11
